Assay results taken from the RNAGym collection of RNA variant scans (doi:10.1073/pnas.2313332121).

B1: TPR t1 (parent)
chain: GACCAAUCUGCCCUCAGAGCUCGAGAACAUCUUCGGAUGCAGAGGAGGCAGGCUUCGGUGGCGCGAUAGCGCCAACGUCCUCAACCUCCAAUGCAUCCCACCACAUGAUGAUGCCUGAAGAGCCUUGGUUUUUUG

Variants of: B1
Test: polymerase ribozyme fitness, log enrichment relative to wild type (log ratio); higher = more active; in vitro selection for triplet polymerase activity
In short: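 Only genotypes with ≥10 input reads and ≥1 read per output were kept after Illumina sequencing of input and output libraries. These libraries were PCR-built, transcribed mutants of each subunit of a heterodimeric triplet polymerase ribozyme, each put through one triplicate in vitro selection round with frozen incubation at −7 °C, gel excision of extended constructs, streptavidin-bead capture and RT-PCR. Fitness is a logarithmic ratio of genotype enrichment to wild-type enrichment, from inverse-variance-weighted replicate averages, with the logarithm in base 2.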

Row | Variant | polymerase ribozyme fitness (log ratio)
1 | G17U G61C | -3.76
2 | A16C C20U C70U | -4.3
3 | A16G G60A U81A G117U | -4.21
4 | A18G G39U | -3.93
5 | A16U A50G U96A U112C G127C | -2.27
6 | A18C A66U | -5.53
7 | A16U G52U G117A U130C U131G | -4.01
8 | G17A C79U U106A A111C | -4.21
9 | G17U G63U U133A | -3.87
10 | A18G G39A C64A A90G G120C | -5.87
11 | A18C A29U | -4.04
12 | G17A A90C | -3.17
13 | G17U G47U | -5.05
14 | G17U C70A C88A A90G | -4.06
15 | A16U G110A | -2.07
16 | A18G U129C | -4.73
17 | A16G G77A C85G | -3.69
18 | A16U C62A A105C | -4.73
19 | G17A G71U G122A | -4.15
20 | G17U G69U A84C C124A | 1.63
21 | A16G A75U C123U | -0.477

Row | Variant | polymerase ribozyme fitness (log ratio)
22 | A16U G23U G61A A84C C114A G117U | -6.96
23 | G17A A75G C89A A90G | -3.23
24 | G17A G120U | -1.62
25 | A16G C70A A95C | -4.17
26 | G17C A41U U130A | -4.18
27 | A16C C123G | -0.273
28 | A18C G36U | -4.02
29 | A16G C86U | -1.54
30 | A16G G48A U126G | -4.19
31 | A18U A24G C72U C73U | -4.35
32 | A16G C70U C115A U125C | -2.39
33 | G17A U78C | -3.04
34 | A18C C56G C72U | -1.24
35 | A18C A95U C124A | -0.947
36 | G17U G63U C73U | -4.41
37 | A16C C72A G110U | -3.99
38 | A16U C89U | -1.23
39 | C15U G93A | -1.99
40 | C15U G71U | -1.38
41 | G17U A29G A37U U112G | -3.31
42 | A16U U59G G69A U96C | -4.5

Row | Variant | polymerase ribozyme fitness (log ratio)
43 | A18G U130G | -4.25
44 | G17U C72U C89A | -3.71
45 | C15U U54A C80A | -4.07
46 | A18C G63C C88U C97G C102U C123U | -6.68
47 | A18G C70U | -2.4
48 | C15U G69U U78C | -0.901
49 | A18C G61A A108U C115U C123U | -6.75
50 | G17U A37U G60A C82U | -2.4
51 | G17A A43U C73G G120A | -3.38
52 | G17U G63A U81A G110C | -6.98
53 | A16U C56G C115A | -4.04
54 | A18C G19U C72G C102A C104G U106A C123G | -5.8
55 | G17U G110C | -7.86
56 | G17C A18U C40U C56G C70G A108G A111U | -7.19
57 | G17C A50C U81A C114U G120U | -5.67
58 | C15U U81G C82G A119G G120U C123A | -0.519
59 | A18C A37U G48A | -3.12
60 | A16C C49G C101A | -4.66
61 | G17C G47A A95U | -5.58
62 | A18C G39U C101A | -3.85
63 | G17C U21A G39A C72A U112C C115A | -0.984

Row | Variant | polymerase ribozyme fitness (log ratio)
64 | A16U C72A | -1.32
65 | A18U A26G C56U C123G | -0.0936
66 | C15U C76U A100U G120C | 0.0455
67 | A16G U54C | -1.39
68 | C15U C79A | -2.26
69 | A18C C82A A84U | -3.72
70 | A16G C40G | -0.424
71 | G17C G77U A91U C123A U132A | -3.88
72 | A16U G60C | -2.17
73 | A18C A100C | -4.31
74 | A16U C73A | -2.64
75 | C15U G113U | -3.92
76 | A18C A37G G110C | -6.11
77 | A18G C22G C104A | -5.54
78 | A16U C20A C73G G117U A119U | -5.33
79 | C15U G61A C82U C85A C86G | -2.18
80 | C15U G65A G69U U87G | -4.77
81 | A16C C115G | -3.37
82 | C15U C40U G61U | -0.881
83 | G17A A43U C88A U96A U129A | -3.98
